Source: IntAct's records for PubMed 19141287

B1: Mitotic checkpoint serine/threonine-protein kinase BUB1 (Homo sapiens), O43683 (parent)
chain: MDTPENVLQMLEAHMQSYKGNDPLGEWERYIQWVEENFPENKEYLITLLEHLMKEFLDKKKYHNDPRFISYCLKFAEYNSDLHQFFEFLYNHGIGTLSSPLYIAWAGHLEAQGELQHASAVLQRGIQNQAEPREFLQQQYRLFQTRLTETHLPAQARTSEPLHNVQVLNQMITSKSNPGNNMACISKNQGSELSGVISSACDKESNMERRVITISKSEYSVHSSLASKVDVEQVVMYCKEKLIRGESEFSFEELRAQKYNQRRKHEQWVNEDRHYMKRKEANAFEEQLLKQKMDELHKKLHQVVETSHEDLPASQERSEVNPARMGPSVGSQQELRAPCLPVTYQQTPVNMEKNPREAPPVVPPLANAISAALVSPATSQSIAPPVPLKAQTVTDSMFAVASKDAGCVNKSTHEFKPQSGAEIKEGCETHKVANTSSFHTTPNTSLGMVQATPSKVQPSPTVHTKEALGFIMNMFQAPTLPDISDDKDEWQSLDQNEDAFEAQFQKNVRSSGAWGVNKIISSLSSAFHVFEDGNKENYGLPQPKNKPTGARTFGERSVSRLPSKPKEEVPHAEEFLDDSTVWGIRCNKTLAPSPKSPGDFTSAAQLASTPFHKLPVESVHILEDKENVVAKQCTQATLDSCEENMVVPSRDGKFSPIQEKSPKQALSSHMYSASLLRLSQPAAGGVLTCEAELGVEACRLTDTDAAIAEDPPDAIAGLQAEWMQMSSLGTVDAPNFIVGNPWDDKLIFKLLSGLSKPVSSYPNTFEWQCKLPAIKPKTEFQLGSKLVYVHHLLGEGAFAQVYEATQGDLNDAKNKQKFVLKVQKPANPWEFYIGTQLMERLKPSMQHMFMKFYSAHLFQNGSVLVGELYSYGTLLNAINLYKNTPEKVMPQGLVISFAMRMLYMIEQVHDCEIIHGDIKPDNFILGNGFLEQDDEDDLSAGLALIDLGQSIDMKLFPKGTIFTAKCETSGFQCVEMLSNKPWNYQIDYFGVAATVYCMLFGTYMKVKNEGGECKPEGLFRRLPHLDMWNEFFHVMLNIPDCHHLPSLDLLRQKLKKVFQQHYTNKIRALRNRLIVLLLECKRSRK

Variants of: B1
Conditions: with KNL1, Q8NG31-2
KNL1, Q8NG31-2, sequence (Q8NG31 other isoform, or with tags, fused parts or gaps): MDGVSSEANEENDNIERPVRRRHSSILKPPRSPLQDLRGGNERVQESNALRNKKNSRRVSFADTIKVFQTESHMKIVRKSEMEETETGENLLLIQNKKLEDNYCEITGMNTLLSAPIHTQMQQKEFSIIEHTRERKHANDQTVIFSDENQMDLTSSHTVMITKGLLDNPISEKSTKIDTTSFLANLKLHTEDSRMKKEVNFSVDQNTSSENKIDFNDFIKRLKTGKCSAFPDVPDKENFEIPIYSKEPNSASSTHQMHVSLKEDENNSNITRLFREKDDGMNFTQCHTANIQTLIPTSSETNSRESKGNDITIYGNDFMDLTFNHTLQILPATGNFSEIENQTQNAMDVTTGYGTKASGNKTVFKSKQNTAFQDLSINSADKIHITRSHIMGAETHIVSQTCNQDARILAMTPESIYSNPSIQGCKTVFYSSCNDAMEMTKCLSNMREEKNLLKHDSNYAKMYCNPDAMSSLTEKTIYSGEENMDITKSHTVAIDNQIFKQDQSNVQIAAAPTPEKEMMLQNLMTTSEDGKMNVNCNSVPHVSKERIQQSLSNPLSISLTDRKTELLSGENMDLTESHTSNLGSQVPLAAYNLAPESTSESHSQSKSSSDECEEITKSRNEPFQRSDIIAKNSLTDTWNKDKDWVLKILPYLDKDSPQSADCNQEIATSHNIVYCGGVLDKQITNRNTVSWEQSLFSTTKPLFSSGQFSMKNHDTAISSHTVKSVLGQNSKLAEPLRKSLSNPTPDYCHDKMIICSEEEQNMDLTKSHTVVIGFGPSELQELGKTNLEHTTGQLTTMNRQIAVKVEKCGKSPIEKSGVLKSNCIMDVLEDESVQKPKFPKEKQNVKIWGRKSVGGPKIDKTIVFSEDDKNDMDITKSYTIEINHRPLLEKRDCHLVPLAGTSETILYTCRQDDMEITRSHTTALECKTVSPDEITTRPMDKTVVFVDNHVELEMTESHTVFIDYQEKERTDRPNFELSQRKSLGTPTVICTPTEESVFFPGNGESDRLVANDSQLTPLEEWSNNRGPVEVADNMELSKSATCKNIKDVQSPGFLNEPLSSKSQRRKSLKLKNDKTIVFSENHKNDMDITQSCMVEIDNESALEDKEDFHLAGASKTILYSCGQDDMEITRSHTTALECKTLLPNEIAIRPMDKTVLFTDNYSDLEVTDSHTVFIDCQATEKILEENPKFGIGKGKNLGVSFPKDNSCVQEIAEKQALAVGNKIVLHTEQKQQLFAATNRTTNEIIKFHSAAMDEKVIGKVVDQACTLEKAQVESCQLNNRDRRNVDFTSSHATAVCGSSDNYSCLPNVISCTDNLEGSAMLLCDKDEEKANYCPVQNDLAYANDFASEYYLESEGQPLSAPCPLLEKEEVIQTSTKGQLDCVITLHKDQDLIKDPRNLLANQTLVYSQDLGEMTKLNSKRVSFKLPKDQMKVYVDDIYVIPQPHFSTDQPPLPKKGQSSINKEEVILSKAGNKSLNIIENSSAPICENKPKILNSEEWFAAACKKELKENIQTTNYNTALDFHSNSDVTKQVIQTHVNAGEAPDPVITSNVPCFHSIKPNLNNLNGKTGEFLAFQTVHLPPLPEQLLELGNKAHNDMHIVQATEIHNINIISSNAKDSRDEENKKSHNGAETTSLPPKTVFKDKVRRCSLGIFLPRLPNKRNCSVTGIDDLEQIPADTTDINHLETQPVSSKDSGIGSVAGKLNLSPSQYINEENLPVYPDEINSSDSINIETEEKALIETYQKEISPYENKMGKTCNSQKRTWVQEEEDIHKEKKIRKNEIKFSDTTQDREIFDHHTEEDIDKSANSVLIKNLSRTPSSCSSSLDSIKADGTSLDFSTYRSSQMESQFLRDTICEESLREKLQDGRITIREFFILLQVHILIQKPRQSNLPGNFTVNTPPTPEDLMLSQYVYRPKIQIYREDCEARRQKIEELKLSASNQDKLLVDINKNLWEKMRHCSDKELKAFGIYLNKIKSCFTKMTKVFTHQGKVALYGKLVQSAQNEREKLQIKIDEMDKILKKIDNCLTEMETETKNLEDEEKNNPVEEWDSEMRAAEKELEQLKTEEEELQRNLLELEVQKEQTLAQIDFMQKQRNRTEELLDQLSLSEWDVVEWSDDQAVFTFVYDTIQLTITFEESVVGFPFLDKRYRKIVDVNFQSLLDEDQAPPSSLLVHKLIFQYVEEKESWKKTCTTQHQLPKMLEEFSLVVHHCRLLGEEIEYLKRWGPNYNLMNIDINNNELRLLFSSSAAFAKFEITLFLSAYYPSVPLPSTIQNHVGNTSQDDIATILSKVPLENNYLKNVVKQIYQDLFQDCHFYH

Row | Variant | effect of a mutation on the interaction
1 | L45G;L49G | disrupting interaction
2 | G93A;I94G;G95L | disrupting interaction

Next, values leading:

Row | effect of a mutation on the interaction | Variant
3 | disrupting interaction | G20S;N21Q;D22A
4 | disrupting interaction | D65G
5 | disrupting interaction | G93A;G95A
